Assay results as given in patent US20190330316A1 (published 2019).

B1: hu16G7VHv2b/hu16G7VLv2 (antibody, V domains shown)
VH: EVQLVQSGAEVVKPGASVKVSCKASGYTFTSSWIHWVRQRPGQGLEWIGEIYPNSGNTNYNEKFKGRVTLTRDISISTAYMELSRLTSDDTAVYYCARLGWLIPLDYWGQGTTVTVSS
VL: DIVLTQSPSSLAVSVGERATISCKSSQSLLDGNDQKNYLAWYQQKPGQSPKLLIYWASTRESGVPDRFSGSGSGTDFTLTISSLQAEDVAVYYCQQFYDYPWTFGGGTKLEIKR
B2: hu16G7VHv7/hu16G7VLv2 (antibody, V domains shown)
VH: EVQLVQPGAEVKKPGASVKVSCKASGYTFTSSWIHWVRQAPGQGLEWMGEIYPNSGNTNYNEKFKGRVTMTVDISISTAYMELSRLRSDDTAVYYCARLGWLIPLDYWGQGTTVTVSS
VL: DIVLTQSPSSLAVSVGERATISCKSSQSLLDGNDQKNYLAWYQQKPGQSPKLLIYWASTRESGVPDRFSGSGSGTDFTLTISSLQAEDVAVYYCQQFYDYPWTFGGGTKLEIKR
B3: hu16G7VHv2a/hu16G7VLv2 (antibody, V domains shown)
VH: EVQLVQSGAEVVKPGASVKVSCKASGYTFTSSWIHWVRQRPGQGLEWIGEIYPNSGNTNYNEKFKGKATLTVDISISTAYMELSRLTSDDTAVYYCARLGWLIPLDYWGQGTTVTVSS
VL: DIVLTQSPSSLAVSVGERATISCKSSQSLLDGNDQKNYLAWYQQKPGQSPKLLIYWASTRESGVPDRFSGSGSGTDFTLTISSLQAEDVAVYYCQQFYDYPWTFGGGTKLEIKR
B4: chimeric 16G7 antibody (antibody, V domains shown)
VH: QVQLQQPGSVLVRPGASVKLSCKASGYTFTSSWIHWAKQRPGQGLEWIGEIYPNSGNTNYNEKFKGKATLTVDISSSTAYVDLTSLTSEDSAVYYCARLGWLIPLDYWGQGTTLIVSS
VL: DIVLSQSPSSLAVSVGEKVTMSCKSSQSLLDGNDQKNYLAWYQQKPGQSPKLLMYWASTRESGVPDRFTGSGSGTDFTLTISSLKAEDLAVYYCQQFYDYPWTFGGGTKLEIKR

Biological target: recombinant human tau (human, UniProt P10636 1-383)
Sequence (P10636 other isoform, or with tags, fused parts or gaps): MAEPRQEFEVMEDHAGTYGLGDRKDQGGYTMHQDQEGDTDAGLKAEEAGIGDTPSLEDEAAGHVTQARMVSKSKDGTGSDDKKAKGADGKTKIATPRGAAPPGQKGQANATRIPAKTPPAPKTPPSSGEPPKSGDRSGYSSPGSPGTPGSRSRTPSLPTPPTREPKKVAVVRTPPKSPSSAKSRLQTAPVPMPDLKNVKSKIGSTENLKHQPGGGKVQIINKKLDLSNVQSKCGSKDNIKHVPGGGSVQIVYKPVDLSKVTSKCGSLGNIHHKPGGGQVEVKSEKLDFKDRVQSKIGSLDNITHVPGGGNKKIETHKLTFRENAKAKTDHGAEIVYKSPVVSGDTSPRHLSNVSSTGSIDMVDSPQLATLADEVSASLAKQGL
Assay: SPR

Binder	Kd
B1	303 pM
B2	293 pM
B3	277 pM
B4	187 pM
